# In the supplement of paper PMC10126150:
# ± gives the standard deviation of the averaged measurements.
# Test system: ATP
# Test: switch fluorescence ratio, 500 uM ATP over buffer (Cy3 cluster intensity, sum of 5 cycles each) (fold (ratio)); higher = stronger signal-on switching upon ATP binding; sequences stand for … in TCGTCGGCAGCGTCAGATGTGTATAAGAGACAGTTTTTTTTTTTTTTTTTTTTTTTTT…TC
# Settings: aptamer strand: ATP DNA aptamer (quencher-CACCTGGGGGAGTATTGCGGAGGAAGG + anchor), 100 nM annealed; ATP concentration: 500 uM
# Outline: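 Between each of five buffer/ATP cycles, the flow-cell was stripped with NaOH and re-annealed. Each cycle imaged Cy3-labelled switching-strand clusters, annealed to 100 nM quencher-labelled ATP aptamer on a modified Illumina MiSeq flow-cell, first in selection buffer and then after 15 min with 500 uM ATP at 22 °C. The fluorescence ratio is summed target-cycle over summed buffer-cycle Cy3 intensity per cluster, averaged per switch-domain sequence, with clusters outside 100-1000 RFU excluded.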
# 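Note: ATP exposure 15 min at 22 °C before imaging.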
row,Sequence,switch fluorescence ratio
1,TGAGAGGAGG,1 ± 0.028
2,TTTCTTGCAC,1.067 ± 0.0095
3,TGACGACGAG,0.992 ± 0.052
4,ATTTAAGAAT,1.022 ± 0.0061
5,AGAGGAGTGT,0.943 ± 0.0098
6,TGGGATCAAG,1 ± 0.032
7,TGGTGATTAG,0.995 ± 0.023
8,AGACATATTT,1 ± 0.027
9,AGAGAACTTG,0.983 ± 0.1
10,ATTAAAAAAG,0.985 ± 0.028
11,TGGGGGTGTT,1 ± 0.032
12,GAATCATAGT,1.003 ± 0.0083
13,ACAGTAAGTT,1.07 ± 0.016
14,CAGGCAAGCG,1.04 ± 0.026
15,GGGAGAATTG,1.01 ± 0.037
16,ACGAGATGGT,1.023 ± 0.0069
17,CTCTATTTGA,0.977 ± 0.016
18,ATATGGTATT,0.99 ± 0.023
19,AGGGTATTAG,0.995 ± 0.025
20,CTCGTATCAG,1.01 ± 0.021
21,GGGGACAGTG,1.01 ± 0.13
22,ACCTTTTTAG,1.02 ± 0.015

row,Sequence,switch fluorescence ratio
1,ATTCGGGGG,0.927 ± 0.064
2,AGTTCTGGCC,1.03 ± 0.068
3,CATGCGGCTA,1.05 ± 0.044
4,ATTGGCCGCC,0.991 ± 0.042
5,CGAAGGATCT,1.02 ± 0.019
6,ACTAAATAGT,0.987 ± 0.013
7,CACATTTAGG,0.978 ± 0.032
8,GTTAGAGAGG,0.9779 ± 0.0078
9,AGGGGACGCC,0.9928 ± 0.0049
10,TGGTGTTTGT,0.983 ± 0.029
11,TGCGGGGAAT,0.9707 ± 0.0068
12,GTTGACGGGT,0.971 ± 0.025
13,TTTTAATTG,0.961 ± 0.038
14,TTGGTCTATC,0.998 ± 0.035
15,CGCTATTATT,1.05 ± 0.04
16,AATTGTTGCG,0.974 ± 0.015
17,GCGAATTGGA,1.028 ± 0.0019
18,CGGGAGCAGG,1.09 ± 0.014
19,TAGTTCTCTT,0.989 ± 0.026
20,TCCCTTTTGG,1.011 ± 0.0029
21,CGTTTAGGCT,1.07 ± 0.14
22,GGAGTAACAT,1.04 ± 0.012

row,Sequence,switch fluorescence ratio
1,AATTATGATG,0.9948 ± 0.0069
2,ATTGGAGTTA,0.999 ± 0.012
3,TAGGGTCACG,0.99721 ± 0.00082
4,CGCCTAAGGG,0.993 ± 0.037
5,TGAGGGGAGG,1.13 ± 0.15
6,GAATTTGGGG,0.961 ± 0.03
7,AGTAAAGGCC,1.02 ± 0.08
8,CGAAAAAAAA,0.948 ± 0.062
9,CGGCTTAGTA,0.988 ± 0.062
10,TCATGAGATT,1.02 ± 0.021
11,GCGGGGGGCA,1.03 ± 0.055
12,GGCTAAGAAT,1.03 ± 0.058
13,TGAATTCCAT,0.983 ± 0.023
14,ATAGGCAGAG,1.003 ± 0.0083
15,TGGGAAATGT,1.1 ± 0.23
16,GGCCACTGGA,1.02 ± 0.021
17,TATGCGGGGG,1.02 ± 0.046
18,AAGAGGCCGG,0.986 ± 0.031
19,GATGGAACTA,1.01 ± 0.034
20,TTGTAGGAAC,0.9978 ± 0.0037
21,TTTTAAGGGG,1.02 ± 0.046
22,CGGGCAGCGG,0.955 ± 0.06

row,Sequence,switch fluorescence ratio
1,GGGGGTCCGC,1.022 ± 0.0071
2,CCAGAGGAAT,1.043 ± 0.0079
3,TTAGAAAGGG,0.977 ± 0.029
4,TTTTCCTAGT,1.12 ± 0.073
5,CGTGGGCAGT,0.956 ± 0.041
6,TACCGTAAAC,1.8 ± 0.7
7,ATGGGATACT,1.03 ± 0.033
8,CCATATCGTT,0.997 ± 0.01
9,TGAAGTCTGC,0.968 ± 0.036
10,GTTGTTTAGG,0.953 ± 0.023
11,AGGAGGTATT,0.99 ± 0.026
12,GGTTTTAGTG,0.967 ± 0.037
13,TGTCCTAGCG,0.99 ± 0.024
14,TCAGTGAGTG,1 ± 0.033
15,TGGGACCCCC,1.34 ± 0.47
16,TCTGAGCCGA,1.39 ± 0.52
17,AAATACCGTT,1.021 ± 0.0057
18,ATTGCAATGT,1.036 ± 0.0055
19,CGTTCTGAAT,0.9901 ± 0.0086
